Laboratory results from US20240026407A1, “MODIFICATION OF SAPONINS” (GLAXOSMITHKLINE BIOLOGICALS SA, priority 2020, published 2024).

How the values were obtained:
Format in all cases: biochemical, Quillaja saponaria
[1] = Experiment 6-1: specificity of rhamnosidases towards other rhamnose residues (C3 saccharide rhamnose, C28 saccharide rhamnose); details: TBE 2%, pH 7.5, 30 degC, 18 h; LCMS/MS; negative controls 0.18, 0.17
[2] = Experiment 6-1: screening of rhamnosidases for derhamnosylation of saponins in treated bark extract (2%), QS-17 2310 to QS-18 2164 (PAR %); details: TBE 2%, pH 7.5, 30 degC, 18 h; TIC peak area ratio percent, LCMS/MS; negative controls 3.061, 2.429
[3] = Experiment 6-1: screening of rhamnosidases for derhamnosylation of saponins in treated bark extract (2%), QS-17 2296 to QS-18 2150 (PAR %); details: TBE 2%, pH 7.5, 30 degC, 18 h; TIC peak area ratio percent of rhamnosylated starting saponin to derhamnosylated product, LCMS/MS; negative controls 4.876, 5.225
[4] = Experiment 6-1: screening of rhamnosidases for derhamnosylation of saponins in treated bark extract (2%), desglucosyl-QS-17 2134 to QS-21 1988 (PAR %); details: TBE 2%, pH 7.5, 30 degC, 18 h; TIC peak area ratio percent, LCMS/MS; negative controls 2.719, 2.158

Molecule | ratio PP/QS-21 [1] | Peak57 (PAR %) [2] [%] | QS-17 (PAR %) [3] [%] | Peak75 (PAR %) [4] [%]
1005 (protein, listed as Enterococcus casseliflavus) MTKKWQATWIEPQQEPTRKEPPFSLADMFSGKKVVQDPPEERLLPPHYLKKIFTVENKSIKQASLTMTAHGIYQAKINGQAVSEAIFAPDYTSYTQYLQYQTYDVTHMLKEKNVWSVTLADGWYAGRVSVSGGSAQFGDRLGILGEIEIYYTDGTYEIIVTDEDFVSSHGKYVYSDLFIGEKQDLRLEKENWETDFDLTGFTKVSKADYGFDHLTPQRGPQVKRQEKLAAKSIWWEKDAVIVDFGQVIAGRVQLQIPLADGQEITIEHSEVLDREGHFFNNIVGRNKDQKDVFIGNGREACLEPDFTFHGFRYIKIDGLDVLPDKQSVWAYAIYSDMKATGSFTTSNQKINQLIENIQWSQKGNMLSIPTDCPQRERVGWTGDIQVFGPTATFFMDVYDFLGRWLDNVRLEQQADGQIVDYTPAPRDYFEGESLTGSLSSAGWGDAIVLLPWTLYQRYGKLEILVENYQAMKRWLSFSRKSAAGDKTDDKQYLWDTKFHFGDWMFPSFMIGEDAKGPMETAFVTKDLFGTAFLAHSSQLFAQISQLLDEEEENWSDFSNKVKAAFQKYYWRDDHLTADFQGSYVIALAFDLLDETASKAAAARLTELIIANNYCLDTGFLSIPYLLDVLCDYGYQELALKLLLQEECPSWLYEVNHGATTIWESWASIQPDGTVCDFSFNHYAFGCVGDWLVRRLAGLQVTEPGFTFFTISPLEQTAISSYHLNYTTAYGDIEIERSNDQFHLSVPQNTKAIFQYGETSKVLTSGKHHLTIKGEKIYE | 0.17 | 2.799 | 5.166 | 2.767
1060 (protein, listed as Lunatimonas lonarensis) MTKTFKIGFLLLACVVFVSCSENPKQADCGLCESVGAKWIQVEKELPTEDSLFYLPNPAPLFRKEFGVESHFDSAKLFITAAGYYKATLNGEAIGKNILDPAWTDYTKRVYYAEYDLSAQIQEGTNCFGVSLGNGFYNPLPMRKWGRRNPREDLNVGKPTFIARLVLYYPNGKTKEISTDESWKYSYGPLIKNSVYLGVLYDKGMEIPGWDRPGFNDTGWKSVQVGKGPGGQLQAAFFPAVQVTEEIRPKSIHEIEKDVYIVDMGVNFTGTYKIRLAGNVGDTVTLRFGERLYEDGTLNPMTTVVGQIKAPGIGGPGSPAIAWQTSSYVVDTEPTWFSPDFTYHTFRYMEITGLQKPPLLTDITGLYFHTNVERESHFTSSNSLLNQIQDATTRTFLSNLISVQSDCAVREKFGYGGDLNATAESFIYNFDMRDIYRKTVYDWVDAINDSIFVDTAPFAGIKYCGISWESAYLITQYYLYLYYDETDLVHELYEDNLAWMDKVARIHPEGMVDSGLSDHESLEPVPVQLTGTAHYLQCAEIMETFASLKGDTKNQQRFAELSEKLRAIIKAEFWDKPVTERINRQTLFSTLLFHRIIPEDELGAARDSLVQAVKNGPSGQFNTGIFGTKYVLETLSESVPIDQVYAIVNSTKFPGWGHMISRGATTIWETWQESDNVFTNCHPMFGTVTEWYYRWLGGIRPDPKQPGFKAFVLAPRTPTGLDSISCSYRSPYGDIVSNWRRESGNSVVYDLIIPVGSVASVSLDMKAAQGLSITKDGKAFQPPVTDASTPGEFKLEGGNYKVVVSG | 0.15 | 2.888 | 5.159 | 2.382
1024 (protein, Bacteroides thetaiotaomicron) MKRTLLLTFLLLSVSALCFSQKLVEVAKGYSCTSVNTTIFRNNSLVTHGDEQYISYYDADGYLVLGKRKLNSKQWTLHRTQYRGNVKDAHNIISIMVDGEGYLHVSFDHHGHKLNYCRSIAPGSLELGDKMPMTGVDEGNVTYPEFYPLTDGDLLFVYRSGSSGRGNLVMNRYSLKDHKWARVQDVLIDGEDKRNAYWQLYVDEKGTIHLSWVWRETWQVETNHDLCYARSFDNGVTWYKSDGEQYKLPITASNAEYACRIPQNSELINQTSMSADAGGNPYIATYWRSSDSEVPQYRIVWNDGKTWHNRQVTDRKTPFTLKGGGTKMIPVARPRIVVEDGEIFYIFRDEERGSRVSMAHTADVANGKWIVTDLTDFSVDAWEPSHDTELWKKQRKLNLFVQHTCQGDGERTAEIEPQMIYVLEANTNTKK | 0.17 | 2.924 | 5.145 | 2.806
